Laboratory results taken from patent publication US20220409512A1, “ORAL CARE COMPOSITIONS FOR GUM HEALTH” (The Procter & Gamble Company, priority 2020, published 2022).

Tests used:
[1] = system: Primary Human Gingival Fibroblasts; assay: In-Vitro Human Gingival Fibroblasts Soluble Collagen Assay; type: cell-based; details: 72 hours
Description: Stage 1: Culturing Primary Human Gingival Fibroblasts (“HGF”): Primary Human Gingival Fibroblasts (“HGF”) were collected from tooth extraction patients and washed with 5 mL of PBS (phosphate buffered saline). The tissues were chopped into small pieces and placed into 15 mL centrifuge tube. The samples were digested with equal amounts of 1 mL 8% dispase and 1 mL 6% collagenase for 1 hr at 37° C., during which time the samples need to be shaken every 15 minutes. Once the digestion process was complete, the tube was centrifuged at 1100 r.p.m. for 6 minutes at room temperature. After centrifugation, a pellet of cells was formed in the bottom of the tube separating them from the supernatant solution. […] The petri dish with cells were placed in the incubator at 37° C. with 5% CO2 for about 10 days. The petri dish was checked for changes in medium color every two days. Fresh culture medium was replaced if changes in medium color occurred.
It was occasionally necessary to tap the petri dish to remove any sticky cells from the petri dish surface. At least 1 mL of fresh MEM culture medium was added to inactivate the trypsin and the cells are collected into a 15 mL centrifuge tube. The tube was then centrifuged at 1100 r.p.m. for 6 minutes at room temperature. […] Petri dishes were each placed with 1 mL cell suspension and 9 mL fresh MEM culture medium in the incubator at 37° C. with 5% CO2 for about 3-5 days until 80-90% cell monolayer coverage on the petri dishes was observed. […] 1 mL cell suspension and 1 mL fresh MEM culture medium were respectively added into each well of a 6-well plate. The cells were further washed with 2 mL PBS to remove any suspended cells until no suspended cells are visible. 2 mL culture medium, or 2 mL culture medium containing 1% Comparative Compositions or 2 mL culture medium containing 1% Inventive Compositions were added to the wells. Cells were maintained in the incubator at 37° C. with 5% CO2 for 72 hours.
After treatment, cells were washed two times with chilled PBS and homogenized with 6M urea. The cell homogenates were centrifuged at 15,000 r.p.m. for 15 min. 100 μL of the supernatant was mixed with 1 mL of Sircol Dye Reagent for 30 minutes. During this time period, a collagen-dye complex formed and precipitated out from the soluble unbound dye. The tubes were transferred to a microcentrifuge and spun at 12,000 r.p.m. for 10 minutes. The tubes were carefully inverted and drained. 750 μL ice-cold Acid-Salt Wash Reagent was gently added to the collagen-dye pellet to remove unbound dye from the surface of the pellet and the inside surface of the microcentrifuge tube. The tube was then centrifuged at 12,000 r.p.m. for 10 minutes. […]

COL1A1 = assay: Compound Screening on Skin Dermis, collagen gene expression (microarray); type: in vivo, human; details: dorsal forearm twice daily, four weeks, retinol at 0.2%, Pal-KTTKS at 100 ppm, vs vehicle, p-value in brackets
Excerpt: (§1) To screen compounds, 30 to 40 female subjects with Fitzpatrick skin types I-III, aged 60-70. At Baseline, each subject was assigned to test each treatment. The products were applied to the dorsal forearm twice daily. Topical treatment with a minimally efficacious moisturizer was used as the vehicle for each test compound and as the negative control.
(§2) After four weeks of treatment, one 4-mm punch biopsy was taken from each treated site. The dermis was separated and snap-frozen in liquid nitrogen and stored at −80° C. until assayed. The frozen tissue was then processed for gene expression analysis. To determine gene expression levels, RNA was extracted, labeled with biotin, hybridized and analyzed using Affymetrix GeneTitan® U219 microarray plates according to the manufacturer's instructions.
(§3) For genomics analysis, microarray sample quality was assessed using principal components analysis and MA-plots. Treatment to negative control comparisons for the microarray data were assessed using ANOVA models fitted separately for each probe set. ANOVA model hypothesis tests were evaluated using the Empirical Bayes method available in the limma R package. A p-value cutoff of 0.05 or less was consider statistically significant.

COL1A2 = assay: as above; type: in vivo, human; details: dorsal forearm twice daily, four weeks, retinol at 0.2%, Pal-KTTKS at 100 ppm, vs vehicle, p-value in brackets
Excerpt: as §1, §2, §3

TGF-B was tested, and the “Collagen Productivity (Collagen/Cell)” value ([1]; Table 5, 1% composition in culture medium, TGF-B 5 ppm) was 5.17 Collagen/Cell, the “Collagen Productivity (Collagen/Cell)” value ([1]; Table 6, 1:100 dilution, TGF-B 5 ppm) was 4.86 Collagen/Cell and the “Collagen Productivity (Collagen/Cell)” value ([1]; Table 7, 1:100 dilution, TGF-B 5 ppm) was 4.86 Collagen/Cell. For the same substance, the “Collagen Productivity (Collagen/Cell)” value ([1]; Table 9, 1:100 dilution, TGF-b 5 ppm) was 5.17 Collagen/Cell.

In the case of “palmitoyl-lys-thr-thr-lys-ser [Pal-KTTKS]”, the “COL1A1 LFC (Log base 2 of the average Fold Change)” value (COL1A1) is reported as −0.15 (0.44) and the “COL1A2 LFC (Log base 2 of the average Fold Change)” value (COL1A2) is reported as −0.048 (0.91).
